From doi:10.1101/2024.10.01.616059 (bioRxiv, 2024)

Target: the molecule itself
Test: SEC; native whole-cell lysate of NIH3T3 AP1 KO cells on Yarra SEC-2000 (1 kDa to 300 kDa); fractions immunoblotted

B1: phosphoribosyl pyrophosphate synthetase 2 (PRPS2), mouse, endogenous (enzyme, UniProt Q9CS42 1-318, looked up)
chain: MPNIVLFSGSSHQDLSQRVADRLGLELGKVVTKKFSNQETSVEIGESVRGEDVYIIQSGCGEINDNLMELLIMINACKIASSSRVTAVIPCFPYARQDKKDKSRAPISAKLVANMLSVAGADHIITMDLHASQIQGFFDIPVDNLYAEPAVLQWIRENITEWRNCIIVSPDAGGAKRVTSIADRLNVEFALIHKERKKANEVDRMVLVGDVKDRVAILVDDMADTCGTICHAADKLLSAGATKVYAILTHGIFSGPAISRINSAAFEAVVVTNTIPQEDKMKHCSKIQVIDISMILAEAIRRTHNGESVSYLFSHVPL
notes: PRPS2, mouse, endogenous protein of NIH3T3 cells and mouse tissue; also called P2; source: endogenous, NIH3T3 (parental and CRISPR knockout clones), native lysate; endogenous, C57BL/6 mouse kidney, native lysate
stoichiometry N: 2
